The record followed here is US20210380703A1 (RIGEL PHARMACEUTICALS, published 2021).

B1: 374_A03 (antibody, V domains shown)
VH: EVQLLESGGGLVQPGGSLRLSCAASGFTFDSYSMNWVRQAPGKGLEWVSNINYNGGYTSYADSVKGRFTISRDNSKNTLYLQMNSLRAEDTAVYYCARSATWHDTHLDYWGQGTLVTVSS
VL: DIQMTQSPSSLSASVGDRVTITCRASQSILTYLNWYQQKPGKAPKLLIYAATSRASGVPSRFSGSGSGTDFTLTISSLQPEDFATYYCQQSYDNPLTFGGGTKVEIK
notes: VH and VL only
B2: 367_H04 (antibody, V domains shown)
VH: B1 VH with D30S, N50S
VL: B1 VL with L33V, A55H, Y92D, D93N
notes: VH and VL only
B3: 366_C07 (antibody, V domains shown)
VH: B1 VH with D30S
VL: B1 VL with L33V, D93N, N94S
notes: VH and VL only
B4: 365_D06 (antibody, V domains shown)
VH: B1 VH
VL: B1 VL with L33V, D93S, N94L
notes: VH and VL only
B5: 365_E08 (antibody, V domains shown)
VH: B1 VH with N50G, G55S
VL: B1 VL with L30I, T31S, L33V, L47V, R54L, N94L
notes: VH and VL only
B6: 369_C08 (antibody, V domains shown)
VH: B1 VH with D30S, S31D, S33G, S59G
VL: B1 VL with L47V, R54L, D93E
notes: VH and VL only
B7: 369_A06 (antibody, V domains shown)
VH: B1 VH with D30S, S31D, S33G, S59G
VL: B1 VL with T31S, L33V, R54L, N94L
notes: VH and VL only
B8: 365_A02 (antibody, V domains shown)
VH: B1 VH
VL: B1 VL with L33V, D93N, N94S
notes: VH and VL only
B9: 369_G09 (antibody, V domains shown)
VH: B1 VH with S59G
VL: B1 VL with L30V, N94L
notes: VH and VL only
B10: 368_G08 (antibody, V domains shown)
VH: B1 VH with S31D, S33G, N50S, G55S, T58K
VL: B1 VL with L30V, T31S, L33V, A55H, D93N
notes: VH and VL only
B11: 369_E09 (antibody, V domains shown)
VH: B1 VH with G55S, T58K, S59G
VL: B1 VL with T31S, L47V, N94L
notes: VH and VL only
B12: 367_A11 (antibody, V domains shown)
VH: B1 VH with D30S, S33G, N35H, N50G
VL: B1 VL with T31S, L33V, L47V, A51T, R54L, D93N, N94S
notes: VH and VL only
B13: 365_E03 (antibody, V domains shown)
VH: B1 VH with S59G
VL: B1 VL with L33V, R54L, A55H, Y92D, D93E, N94R
notes: VH and VL only
B14: 368_G07 (antibody, V domains shown)
VH: B1 VH with D30S, N35H, N50S
VL: B1 VL with L30V, T31S, L33V, L47V, N94T
notes: VH and VL only
B15: 366_C03 (antibody, V domains shown)
VH: B1 VH with S33G, S59G
VL: B1 VL with T31S, L47V, D93S
notes: VH and VL only
B16: 366_F06 (antibody, V domains shown)
VH: B1 VH with D30S, S31D, S33G, N50S
VL: B1 VL with L30S, R54L, D93S
notes: VH and VL only
B17: 366_E02 (antibody, V domains shown)
VH: B1 VH with D30S, N50G, G55S, T58K, S59G
VL: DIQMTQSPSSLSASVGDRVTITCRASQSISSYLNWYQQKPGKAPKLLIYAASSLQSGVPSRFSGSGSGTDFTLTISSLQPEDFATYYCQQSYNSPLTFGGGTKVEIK
notes: VH and VL only
B18: 365_H09 (antibody, V domains shown)
VH: B1 VH with D30S, S33G, N50S, G55S, T58K
VL: not shown
notes: VH and VL only
B19: 369_E04 (antibody, V domains shown)
VH: B1 VH with D30S, S31D, N50G, G55S, T58K
VL: B1 VL with T31S, L33V, L47V, D93S, N94L
notes: VH and VL only
B20: 365_G02 (antibody, V domains shown)
VH: B1 VH with D30S, S31D, G55S, T58K, S59G
VL: B1 VL with L30V, L47V, A51V, R54L, A55H, D93E, N94L
notes: VH and VL only
B21: 366_E03 (antibody, V domains shown)
VH: B1 VH with S33G, T58K
VL: B1 VL with L47V, A55H, D93S
notes: VH and VL only
B22: 367_G08 (antibody, V domains shown)
VH: B1 VH with S33G, T58K, S59G
VL: B1 VL with T31S, D93E
notes: VH and VL only
B23: 369_A01 (antibody, V domains shown)
VH: B1 VH with N50G, G55S, T58K, S59G
VL: B1 VL with L33V, L47V, R54L, D93E, N94L
notes: VH and VL only
B24: 367_D02 (antibody, V domains shown)
VH: B1 VH with S31D
VL: B1 VL with L30V, L33V, D93E
notes: VH and VL only
B25: 369_D06 (antibody, V domains shown)
VH: B1 VH with N50G, S59G
VL: B1 VL with D93E, N94T
notes: VH and VL only
B26: 367_F12 (antibody, V domains shown)
VH: B1 VH with S31D, G55S, T58K, S59G
VL: not shown
notes: VH and VL only
B27: 368_B05 (antibody, V domains shown)
VH: B1 VH with N50S, G55S, S59G
VL: not shown
notes: VH and VL only
B28: 369_F04 (antibody, V domains shown)
VH: B1 VH with D30S, S33G, N50G
VL: B1 VL with L30I, T31S, L33V, A55H
notes: VH and VL only
B29: 365_H04 (antibody, V domains shown)
VH: B1 VH with D30S, S31D, S33G, N50G, G55S, T58K
VL: B1 VL with L33V, L47V, D93E, N94S
notes: VH and VL only
B30: 365_A04 (antibody, V domains shown)
VH: B1 VH with D30S, S31D, N50G, G55S
VL: B1 VL with L30V, T31S, L33V, L47V, R54L, D93S, N94T
notes: VH and VL only

Changes are numbered by the printed parent chain.
Further: test concentration or dose not given here.

T2 sequence (P27037 20-135 limits assumed): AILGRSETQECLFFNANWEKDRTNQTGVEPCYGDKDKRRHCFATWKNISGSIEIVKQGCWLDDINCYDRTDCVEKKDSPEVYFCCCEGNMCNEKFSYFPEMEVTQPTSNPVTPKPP
mouse ACVR2A, sequence (P27038 20-135 limits assumed): as the sequence (P27037 20-135 limits assumed) above, with K20R, V73I counted along it

In one assay the target is T1, biotinylated goat anti-human kappa light chain.
T1 construct: Positive control of the ELISA
The assay can be described thus: ELISA, positive control. The procedure, abridged:
(§1)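 ELISA measured binding of ACVR2A-specific monoclonal antibodies to human and mouse ACVR2A. Biotinylated goat anti-human kappa light chain served as positive control and human Fc as negative control.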
In turn, B1 yielded an optical density of 3.05 OD.

In the case of B2, the optical density was 3.4 OD.

Molecule B3 yielded an optical density of 3.37 OD.

B4 gave an optical density of 3.42 OD.

With B5, the optical density worked out at 3.33 OD.

In turn, B6 registered an optical density of 2.8 OD.

The molecule B7 showed an optical density of 3.32 OD.

In turn, B8 displayed an optical density of 3.49 OD.

With B9, the optical density was determined as 3.6 OD.

Turning to B10, the optical density is 3.29 OD.

B11 showed an optical density of 3.48 OD.

Turning to B12, the optical density amounted to 3.61 OD.

On to B13, for which the optical density turned out to be 3.33 OD.

Consider B14, for which the optical density was 3.16 OD.

For B15, the optical density is 3.55 OD.

Molecule B16 came in with an optical density of 3.44 OD.

With B17, the optical density is 3.46 OD.

On to B18, for which the optical density came to 3.53 OD.

Take B19: the optical density is 3.52 OD.

In turn, B20 yielded an optical density of 3.45 OD.

As to B21, the optical density was determined as 3.54 OD.

Turning to B22, the optical density was determined as 3.32 OD.

B23 gave an optical density of 3.55 OD.

The molecule B24 displayed an optical density of 3.46 OD.

With B25, the optical density was found to be 3.11 OD.

In the case of B26, the optical density was 3.6 OD.

Regarding B27, the optical density is 3.26 OD.

B28: the optical density was 3.46 OD.

Molecule B29 returned an optical density of 3.5 OD.

In turn, B30 returned an optical density of 3.28 OD.

In the next assay the target is mouse ACVR2A (mouse, UniProt P27038 20-135, limits assumed). As to the kind of experiment: ELISA. The gist of the method:
as §1
As for B1, the optical density amounted to 3.71 OD.

Regarding B2, the optical density is 1.85 OD.

As for B3, the optical density was found to be 3.06 OD.

In the case of B4, the optical density is 3.08 OD.

On to B5, for which the optical density is 2.58 OD.

B6: the optical density came out at 2.33 OD.

B7 gave an optical density of 3.01 OD.

B8: the optical density stood at 2.96 OD.

Take B9: the optical density amounted to 3.27 OD.

Molecule B10 gave an optical density of 1.75 OD.

Take B11: the optical density came to 3.77 OD.

On to B12, for which the optical density turned out to be 2.52 OD.

B13 had an optical density of 2.69 OD.

Regarding B14, the optical density is 2.05 OD.

Regarding B15, the optical density was 2.74 OD.

Consider B16, for which the optical density came to 2.15 OD.

Take B17: the optical density was found to be 2.58 OD.

As for B18, the optical density was found to be 2.56 OD.

Regarding B19, the optical density was 3.3 OD.

In turn, B20 came in with an optical density of 2.15 OD.

For B21, the optical density came to 2.72 OD.

For the molecule B22, the optical density came out at 2.78 OD.

With B23, the optical density came out at 3.66 OD.

Turning to B24, the optical density amounted to 2.46 OD.

The molecule B25 yielded an optical density of 3.35 OD.

Molecule B26 returned an optical density of 2.29 OD.

In the case of B27, the optical density is 1.75 OD.

Turning to B28, the optical density was found to be 2.17 OD.

For B29, the optical density is 2.59 OD.

The molecule B30 yielded an optical density of 1.41 OD.

A further assay concerns the target T2, human ACVR2A (human, UniProt P27037 20-135, limits assumed).
T2 construct: also called activin receptor, type II A
As to the kind of experiment: ELISA. The procedure, abridged:
as §1
For B1, the optical density stood at 3.58 OD.

B2 yielded an optical density of 1.62 OD.

For B3, the optical density stood at 3.02 OD.

In the case of B4, the optical density stood at 2.95 OD.

Regarding B5, the optical density was determined as 2.59 OD.

As for B6, the optical density stood at 2.32 OD.

The molecule B7 returned an optical density of 2.89 OD.

Regarding B8, the optical density was 3.03 OD.

In turn, B9 had an optical density of 3.36 OD.

The molecule B10 registered an optical density of 1.6 OD.

For B11, the optical density worked out at 3.63 OD.

In turn, B12 came in with an optical density of 2.34 OD.

In turn, B13 gave an optical density of 2.56 OD.

In the case of B14, the optical density worked out at 1.79 OD.

The molecule B15 displayed an optical density of 2.41 OD.

On to B16, for which the optical density was determined as 1.87 OD.

In turn, B17 gave an optical density of 2.26 OD.

B18: the optical density was determined as 2.38 OD.

B19 had an optical density of 2.88 OD.

Consider B20, for which the optical density worked out at 1.98 OD.

Consider B21, for which the optical density was determined as 2.55 OD.

For B22, the optical density was determined as 2.69 OD.

For B23, the optical density amounted to 3.6 OD.

B24: the optical density came out at 2.46 OD.

With B25, the optical density came out at 3.44 OD.

Take B26: the optical density was 2.38 OD.

On to B27, for which the optical density was 1.73 OD.

On to B28, for which the optical density was determined as 1.95 OD.

Regarding B29, the optical density came to 2.47 OD.

On to B30, for which the optical density was found to be 1.49 OD.
